The target in this assay is T1, pseudokinase mixed lineage kinase domain-like (MLKL) (human (endogenous in post-mortem hippocampus)), Q8NB16.
T1 chain: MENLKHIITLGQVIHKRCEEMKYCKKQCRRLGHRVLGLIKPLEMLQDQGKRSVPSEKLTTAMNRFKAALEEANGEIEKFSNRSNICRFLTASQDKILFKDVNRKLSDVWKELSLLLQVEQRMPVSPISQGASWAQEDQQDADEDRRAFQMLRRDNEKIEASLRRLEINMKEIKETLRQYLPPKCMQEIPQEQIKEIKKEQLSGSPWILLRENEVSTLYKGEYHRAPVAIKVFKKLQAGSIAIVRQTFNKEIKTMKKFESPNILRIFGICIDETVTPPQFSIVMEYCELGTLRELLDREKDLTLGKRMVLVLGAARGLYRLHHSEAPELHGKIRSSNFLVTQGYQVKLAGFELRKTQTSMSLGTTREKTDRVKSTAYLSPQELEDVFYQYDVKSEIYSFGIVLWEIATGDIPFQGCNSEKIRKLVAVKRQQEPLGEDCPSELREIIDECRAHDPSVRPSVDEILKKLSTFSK
As to the kind of experiment: non-reducing gel and western blot; hippocampal grey matter extracted in native conditions (TBS, 0.1% Triton X-100), run on 7.5% gel in non-reducing conditions, blot for MLKL; AD (n = 14) and control (n = 8) cases. To be noted: remark: other sources report otherwise. (In western blotting, separated proteins are transferred to a membrane and probed.)

Broadly, the stoichiometry N is a count of units in the complex or per binding partner.

B1: pseudokinase mixed lineage kinase domain-like (MLKL), Q8NB16 1-471 (natural protein)
chain: MENLKHIITLGQVIHKRCEEMKYCKKQCRRLGHRVLGLIKPLEMLQDQGKRSVPSEKLTTAMNRFKAALEEANGEIEKFSNRSNICRFLTASQDKILFKDVNRKLSDVWKELSLLLQVEQRMPVSPISQGASWAQEDQQDADEDRRAFQMLRRDNEKIEASLRRLEINMKEIKETLRQYLPPKCMQEIPQEQIKEIKKEQLSGSPWILLRENEVSTLYKGEYHRAPVAIKVFKKLQAGSIAIVRQTFNKEIKTMKKFESPNILRIFGICIDETVTPPQFSIVMEYCELGTLRELLDREKDLTLGKRMVLVLGAARGLYRLHHSEAPELHGKIRSSNFLVTQGYQVKLAGFELRKTQTSMSLGTTREKTDRVKSTAYLSPQELEDVFYQYDVKSEIYSFGIVLWEIATGDIPFQGCNSEKIRKLVAVKRQQEPLGEDCPSELREIIDECRAHDPSVRPSVDEILKKLSTFSK
In the case of B1, the stoichiometry N came out at 4.

The values above are taken from article PMC8501605.
